Test results reported in patent publication US20120039802A1 (published 2012).

Key:
[1] = target: T1, cMet-Fc fusion protein (extracellular domain of the cMet receptor expressed as an Fc-fusion protein) (human, UniProt P08581 25-932); assay: phage ELISA, cMet-Fc vs TRAIL-Fc
T1 construct: extracellular domain; also called soluble cMet-Fc-fusion protein; soluble cMet receptor; not shown: Fc part
How it was run: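 Specificity check: phage displaying peptides incubated 2 h at room temperature on wells coated with 0.5 μg/mL cMet-Fc versus TRAIL-Fc, after blocking with 3% BSA/PBST. HRP-anti-M13 antibody detected binding phage.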

[2] = target: T2, human cMet expressed on 3T3 cells (human, UniProt P08581 25-1390); assay: whole cell phage ELISA, 3T3 human cMet vs 3T3
T2 construct: whole, on cells; cells fixed with glutaraldehyde; also called cell surface-expressed human cMet; 3T3 cells that over-express human cMet
How it was run: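 Bound phage was detected with an HRP-conjugated anti-M13 antibody after PBST washes. The cells were cMet-over-expressing 3T3, read against plain 3T3.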

[3] = target: T1, cMet-Fc fusion protein (extracellular …); assay: phage ELISA on cMet-Fc, competitor HGF 500 ng/mL
How it was run: (§1)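 Plates coated with 0.5 μg/mL cMet-Fc, with TRAIL-Fc as background, then blocked with 3% BSA. Bound phage detected with HRP anti-M13 antibody.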

[4] = target: T1, cMet-Fc fusion protein (extracellular …); assay: phage ELISA on cMet-Fc, competitor HGF 100 ng/mL
How it was run: as §1

T1 sequence (P08581 25-932): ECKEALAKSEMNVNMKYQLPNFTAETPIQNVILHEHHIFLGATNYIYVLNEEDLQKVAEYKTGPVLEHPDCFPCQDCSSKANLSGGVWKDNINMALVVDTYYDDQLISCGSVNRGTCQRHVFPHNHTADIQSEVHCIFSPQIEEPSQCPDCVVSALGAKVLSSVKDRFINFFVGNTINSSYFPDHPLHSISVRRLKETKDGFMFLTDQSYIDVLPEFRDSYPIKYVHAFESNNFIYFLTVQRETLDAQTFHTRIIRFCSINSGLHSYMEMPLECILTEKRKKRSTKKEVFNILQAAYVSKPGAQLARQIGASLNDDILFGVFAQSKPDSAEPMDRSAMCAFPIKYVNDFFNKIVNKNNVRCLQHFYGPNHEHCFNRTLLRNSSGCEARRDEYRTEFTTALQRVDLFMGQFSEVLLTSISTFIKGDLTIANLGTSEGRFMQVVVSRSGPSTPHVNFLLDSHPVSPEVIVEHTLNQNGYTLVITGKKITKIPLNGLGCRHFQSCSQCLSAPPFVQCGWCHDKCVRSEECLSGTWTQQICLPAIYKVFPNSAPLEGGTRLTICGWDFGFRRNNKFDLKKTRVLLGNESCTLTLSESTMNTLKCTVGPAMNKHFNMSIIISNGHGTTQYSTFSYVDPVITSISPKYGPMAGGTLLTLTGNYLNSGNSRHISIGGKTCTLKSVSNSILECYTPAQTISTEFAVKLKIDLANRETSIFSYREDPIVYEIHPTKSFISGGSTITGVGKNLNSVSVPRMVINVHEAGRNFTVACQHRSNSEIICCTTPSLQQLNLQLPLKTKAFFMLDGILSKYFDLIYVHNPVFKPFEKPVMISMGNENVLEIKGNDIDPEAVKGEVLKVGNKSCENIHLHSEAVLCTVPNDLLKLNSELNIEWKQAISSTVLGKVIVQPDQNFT
T2 sequence (P08581 25-1390): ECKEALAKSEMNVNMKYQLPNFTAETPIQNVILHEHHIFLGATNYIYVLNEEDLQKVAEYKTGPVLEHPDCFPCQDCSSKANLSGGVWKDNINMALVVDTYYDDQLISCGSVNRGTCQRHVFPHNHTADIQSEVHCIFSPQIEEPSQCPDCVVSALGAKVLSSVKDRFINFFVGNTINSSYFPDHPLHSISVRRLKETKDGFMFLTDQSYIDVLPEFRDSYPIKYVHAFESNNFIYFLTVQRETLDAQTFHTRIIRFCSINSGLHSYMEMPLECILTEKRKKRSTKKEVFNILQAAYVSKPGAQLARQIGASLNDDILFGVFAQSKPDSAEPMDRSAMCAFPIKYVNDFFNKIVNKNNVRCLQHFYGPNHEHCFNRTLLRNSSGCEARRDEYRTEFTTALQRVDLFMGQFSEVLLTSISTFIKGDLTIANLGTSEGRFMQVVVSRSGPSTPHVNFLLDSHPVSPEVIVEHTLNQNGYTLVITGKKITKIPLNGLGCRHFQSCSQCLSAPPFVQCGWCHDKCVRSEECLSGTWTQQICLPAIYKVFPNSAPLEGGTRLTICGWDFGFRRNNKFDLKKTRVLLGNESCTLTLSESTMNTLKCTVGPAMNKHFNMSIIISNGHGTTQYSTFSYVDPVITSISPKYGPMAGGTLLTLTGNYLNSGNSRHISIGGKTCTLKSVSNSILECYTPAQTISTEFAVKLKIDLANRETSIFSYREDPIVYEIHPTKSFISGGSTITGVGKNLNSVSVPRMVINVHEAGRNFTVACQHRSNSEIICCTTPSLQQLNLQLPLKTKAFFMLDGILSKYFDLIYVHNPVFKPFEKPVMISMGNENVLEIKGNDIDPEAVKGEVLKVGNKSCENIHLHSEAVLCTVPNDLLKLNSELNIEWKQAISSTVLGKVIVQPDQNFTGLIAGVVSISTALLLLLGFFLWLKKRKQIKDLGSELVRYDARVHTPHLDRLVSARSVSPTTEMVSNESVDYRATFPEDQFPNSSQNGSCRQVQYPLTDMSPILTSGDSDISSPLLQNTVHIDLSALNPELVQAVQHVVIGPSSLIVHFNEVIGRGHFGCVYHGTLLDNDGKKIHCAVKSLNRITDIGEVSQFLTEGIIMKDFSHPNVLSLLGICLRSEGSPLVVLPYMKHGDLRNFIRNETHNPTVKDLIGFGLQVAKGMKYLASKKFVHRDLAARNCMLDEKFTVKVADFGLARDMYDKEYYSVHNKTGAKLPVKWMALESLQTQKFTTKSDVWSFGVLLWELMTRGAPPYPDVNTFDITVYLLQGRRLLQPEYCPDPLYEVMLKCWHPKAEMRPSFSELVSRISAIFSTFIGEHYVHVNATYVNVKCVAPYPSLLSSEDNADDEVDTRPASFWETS

| Binder | Protein ELISA (fold over background) [1] | WC ELISA (fold over background) [2] | % of binding in the absence of HGF [3] | % of binding in the absence of HGF [4] |
| --- | --- | --- | --- | --- |
| AQMGHHWDVQWDYKLFHVARGD [136-D01 peptide-displaying phage (SEQ ID NO: 473)] | 3.7 fold | 1.23 fold | 149% | 85% |
| AQWPHDGLVHWGEVIMLRF [117-F04 peptide-displaying phage (SEQ ID NO: 479)] | 3.3 fold | 1.37 fold | 91% | 93% |
| AQDPGFSKHSMGHGYPSKMNWG [115-G02 peptide-displaying phage (SEQ ID NO: 471)] | 3.7 fold | 1.27 fold | 0% | 59% |
| AGWFECEFGFWGCNWLGT [437-A09 peptide-displaying phage (SEQ ID NO: 018)] | 3.9 fold | 1.13 fold | 78% | 89% |
| AQHGYLSPLKQYQMSHVEFWTY [94-A06 peptide-displaying phage (SEQ ID NO: 476)] | 3.5 fold | 1.17 fold | 96% | 84% |
| AQFMYEKEHYVMSISLPGLWFY [122-D07 peptide-displaying phage (SEQ ID NO: 486)] | 3 fold | 1.63 fold | 92% | 102% |
| AQVGESLDDGWTFFSDKWFDFF [27-D10 peptide-displaying phage (SEQ ID NO: 485)] | 3 fold | 1.17 fold | 131% | 111% |
| AGWWSCQWELNVCIWQGT [484-D08 peptide-displaying phage (SEQ ID NO: 016)] | 4.1 fold | 1.33 fold | 90% | 105% |
| AQHSVQRQMDVWMPVQFMAGFT [02-B08 peptide-displaying phage (SEQ ID NO: 467)] | 3.9 fold | 1.3 fold | 96% | 84% |
| AQAEWVITSEEFYWKMADFGPP [75-B12 peptide-displaying phage (SEQ ID NO: 478)] | 3.4 fold | 1.23 fold | 108% | 95% |
| AQHWDYDSGSDFWFPVFFLEHH [79-B02 peptide-displaying phage (SEQ ID NO: 475)] | 3.5 fold | 1.3 fold | 86% | 102% |
| AQSPYIFPIDDSGRQIFVIQWG [76-D09 peptide-displaying phage (SEQ ID NO: 463)] | 4.4 fold | 1.23 fold | 87% | 79% |
| AQEWEREYFVDGFWGSWFGIPH [130-E10 peptide-displaying phage (SEQ ID NO: 472)] | 3.7 fold | 1.8 fold | 92% | 100% |
| AQWNQWDEFMWFLNPPPIGLMW [151-B08 peptide-displaying phage (SEQ ID NO: 480)] | 3.3 fold | 1.23 fold | 368% | 102% |
| AQELFQILEKQMWSDFMEWATP [15-D02 peptide-displaying phage (SEQ ID NO: 474)] | 3.6 fold | 1.23 fold | 118% | 97% |
| AQDNTADQMFNGFHVLAMYMV [117-E09 peptide-displaying phage (SEQ ID NO: 481)] | 3.3 fold | 1.37 fold | 102% | 109% |
| AQLFQYLWHDDPQGAFFQLSMW [98-F05 peptide-displaying phage (SEQ ID NO: 483)] | 3.1 fold | 1.23 fold | 57% | 88% |
| AQKETWEFFDIVYGSGWKFNSP [116-H02 peptide-displaying phage (SEQ ID NO: 466)] | 4 fold | 1.23 fold | 72% | 84% |
| AQFSGLVMYGRTHEVQWTFGSM [94-G02 peptide-displaying phage (SEQ ID NO: 477)] | 3.5 fold | 1.3 fold | 76% | 108% |
| AQHVVTLTLIQMPFAFNFEPRM [118-B12 peptide-displaying phage (SEQ ID NO: 484)] | 3.1 fold | 1.3 fold | 112% | 98% |
| AGYYHCIDDFPQCKWMGT [482-D02 peptide-displaying phage (SEQ ID NO: 017)] | 3.9 fold | 1.37 fold | 44% | 66% |
| AQVPDWLSAVVIEKLIEYGMMV [93-C08 peptide-displaying phage (SEQ ID NO: 464)] | 4.4 fold | 1.37 fold | 96% | 101% |
| AQGFELWVDHTRNFFIAISP [127-A07 peptide-displaying phage (SEQ ID NO: 469)] | 3.8 fold | 1.2 fold | 107% | 101% |
| AQSDHDHAHWGVKHWPFRRYQ [93-B10 peptide-displaying phage (SEQ ID NO: 482)] | 3.1 fold | 1.2 fold | 0% | 0% |
| AQFDRYWHFAWMDVSFSSGQSG [92-B05 peptide-displaying phage (SEQ ID NO: 465)] | 4.3 fold | 1.2 fold | 94% | 94% |
| AQEWQTWTWNMIEVISENKTP [117-F03 peptide-displaying phage (SEQ ID NO: 468)] | 3.8 fold | 1.4 fold | 93% | 104% |
| AQHMDPAEWDWFIRIYSPVVNP [149-E06 peptide-displaying phage (SEQ ID NO: 487)] | 3 fold | 1.8 fold | 86% | 80% |
| AQAYEWWADESIFNHGYYWGHQ [94-B08 peptide-displaying phage (SEQ ID NO: 470)] | 3.8 fold | 1.2 fold | 121% | 111% |
